Source: US20230250170A1 (Regeneron, published 2023)

What was measured:
[1] = molecular target: T1, monkey NPR1 on HEK293/mfNPR1 cells in the presence of 100 nM hBNP (monkey (Macaca fascicularis); human); assay: ECL cell-binding immunoassay (MSD), HEK293/mfNPR1, +100 nM hBNP
T1 construct: also called HEK293/mfNPR1 +100 nM hBNP
Method: (§1) Cultures of the cell lines described above were rinsed once in 1×PBS buffer without Ca²⁺/Mg²⁺ and incubated for 10 minutes at 37° C. with Enzyme Free Cell Dissociation Solution to detach cells from the flask. The collected cell pellets were washed once with and resuspended in 1×PBS with Ca²⁺/Mg²⁺ and then cells were counted with a Cellometer™ Auto T4 cell counter (Nexcelom Bioscience, Lawrence, Mass.). Approximately 2.0×10⁴ cells per well were seeded onto 96-well carbon electrode plates (Meso Scale Diagnostics, Rockville, Md.) and incubated for 1 hour at 37° C. Nonspecific binding sites were blocked using 2% BSA (w/v) in 1×PBS containing Ca²⁺/Mg²⁺ for 1 h at room temperature. Subsequently, HEK293/hNPR1 and HEK293/mfNPR1 cells were incubated for 0.5 hour at room temperature with 10 nM hANP (Tocris, Minneapolis, Minn.), 100 nM hBNP (Tocris, Minneapolis, Minn.), or sample dilution buffer alone, while HEK293 cells were treated with sample dilution buffer only. Without washing, serial dilutions of anti-NPR1, Comparator 1 or the isotype control antibody, ranging from 1.7 pM to 100 nM, or buffer containing no antibody were added to the cells followed by 1 hour incubation at room temperature. Plates were then washed to remove unbound antibodies, hANP, and hBNP using an AquaMax2000 plate washer with a cell washing head (MDS Analytical Technologies, Sunnyvale, Calif.). The plate-bound antibodies were detected with a SULFO-TAG™-conjugated polyclonal goat anti-human IgG antibody specific for heavy and light chains (Jackson Immunoresearch, West Grove, Pa.) that was incubated with the cells for 1 hour at room temperature.
(§2) After washes, plates were developed with Read Buffer (Meso Scale Diagnostics, Rockville, Md.) according to manufacturer's recommended procedure and luminescent signals were recorded with a SECTOR Imager 600 (Meso Scale Diagnostics, Rockville, Md.). The binding signals in a unit of RLU were analyzed as a function of the antibody concentration and data were fitted with a sigmoidal (four-parameter logistic) dose-response model using R statistical package (open source).

[2] = molecular target: T2, monkey (Macaca fascicularis) NPR1 on HEK293/mfNPR1 cells (monkey (Macaca fascicularis)); assay: ECL cell-binding immunoassay (MSD), HEK293/mfNPR1, no ligand added
T2 construct: whole, on cells; No ligand added
Method: as §1, §2

[3] = molecular target: T3, pig NPR1 extracellular domain expressed with a C-terminal myc-myc-hexahistidine (pig); assay: SPR Biacore 8K, mAb captured via anti-hFc, 37 C
T3 chain: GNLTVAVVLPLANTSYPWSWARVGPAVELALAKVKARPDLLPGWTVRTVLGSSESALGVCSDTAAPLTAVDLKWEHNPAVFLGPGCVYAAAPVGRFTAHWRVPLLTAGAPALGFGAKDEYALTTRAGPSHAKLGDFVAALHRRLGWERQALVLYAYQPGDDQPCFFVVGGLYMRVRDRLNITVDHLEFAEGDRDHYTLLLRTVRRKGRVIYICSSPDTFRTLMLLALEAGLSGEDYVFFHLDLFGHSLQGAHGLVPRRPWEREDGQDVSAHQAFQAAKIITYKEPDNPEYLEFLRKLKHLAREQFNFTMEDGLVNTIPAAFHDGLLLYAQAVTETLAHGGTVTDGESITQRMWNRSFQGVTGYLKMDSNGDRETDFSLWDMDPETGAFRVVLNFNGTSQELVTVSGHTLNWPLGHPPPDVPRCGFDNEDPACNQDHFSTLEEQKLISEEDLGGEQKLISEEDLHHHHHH
Method: (§3) The equilibrium dissociation constant (KD) for different NPR1 reagents binding to purified anti-NPR1 monoclonal antibodies (mAbs) were determined using a real-time surface plasmon resonance (SPR) based Biacore 8k biosensor. All binding studies were performed in 10 mM HEPES, 150 mM NaCl, 3 mM EDTA, and 0.05% v/v Surfactant P20, pH 7.4 (HBS-EP) running buffer at 25° C. and 37° C. The Biacore CM5 sensor chip surface was first derivatized by amine coupling with anti-human Fc specific antibody to capture anti-NPR1 mAbs. Binding studies were performed on human NPR1 extracellular domain expressed with a C-terminal myc-myc-hexahistidine (hNPR1-MMH; SEQ ID NO:74), monkey NPR1 extracellular domain expressed with a C-terminal myc-myc-hexahistidine (mfNPR1-MMH; SEQ ID NO:75), mouse NPR1 extracellular domain expressed with a C-terminal myc-myc-hexahistidine (mNPR1-MMH; SEQ ID NO:76), dog NPR1 extracellular domain expressed with a C-terminal myc-myc-hexahistidine (dog_NPR1-MMH; SEQ ID NO:77), pig NPR1 extracellular domain expressed with a C-terminal myc-myc-hexahistidine (pig_NPR1-MMH; SEQ ID NO:78), and hNPR1-MMH+10×hANP.
(§4) Different concentrations (40 nM-0.625 nM, 4-fold serial dilutions) of hNPR1-MMH, mfNPR1-MMH, hNPR1-MMH in the presence of 10-fold concentration of hANP, or a fixed concentration (40 nM) of mNPR1-MMH, dog_NPR1-MMH, pig_NPR1-MMH were prepared in HBS-EP running buffer, and then injected for 150 sec at a flow rate of 30 μL/min, while the dissociation of mAb bound different NPR1 reagents was monitored for 30 minutes in HBS-EP running buffer. At the end of each cycle, the anti-NPR1 mAb capture surface was regenerated using a 12 sec injection of 10 mM phosphoric acid. The association rate (ka) and dissociation rate (kd) were determined by fitting the real-time binding sensorgrams to a 1:1 binding model with mass transport limitation using Biacore insight evaluation software. Binding dissociation equilibrium constant (KD) and dissociative half-life (t½) were calculated from the kinetic rates as: […]

[4] = molecular target: T4, dog NPR1 extracellular domain expressed with a C-terminal myc-myc-hexahistidine (dog); assay: SPR Biacore 8K, mAb captured via anti-hFc, 37 C
T4 chain: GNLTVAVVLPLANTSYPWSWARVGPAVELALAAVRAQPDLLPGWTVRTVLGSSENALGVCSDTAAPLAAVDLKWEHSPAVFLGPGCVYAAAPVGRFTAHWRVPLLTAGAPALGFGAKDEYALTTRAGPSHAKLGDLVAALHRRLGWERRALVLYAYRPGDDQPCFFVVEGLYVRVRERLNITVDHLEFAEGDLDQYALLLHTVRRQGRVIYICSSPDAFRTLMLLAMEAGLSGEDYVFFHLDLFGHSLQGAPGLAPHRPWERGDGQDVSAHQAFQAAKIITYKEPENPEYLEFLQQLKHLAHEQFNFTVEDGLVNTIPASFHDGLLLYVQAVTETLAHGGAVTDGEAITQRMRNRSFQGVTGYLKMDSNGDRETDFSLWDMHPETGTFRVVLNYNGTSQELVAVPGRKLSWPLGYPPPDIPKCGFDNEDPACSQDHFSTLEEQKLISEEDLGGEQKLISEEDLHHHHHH
Method: as §3, §4

[5] = molecular target: T5, mouse NPR1 extracellular domain expressed with a C-terminal myc-myc-hexahistidine (mouse, UniProt P18293 29-469); assay: SPR Biacore 8K, mAb captured via anti-hFc, 37 C
T5 construct: also called mNPR1-MMH
Method: as §3, §4
Target sequence in this assay (P18293 other isoform, or with tags, fused parts or gaps): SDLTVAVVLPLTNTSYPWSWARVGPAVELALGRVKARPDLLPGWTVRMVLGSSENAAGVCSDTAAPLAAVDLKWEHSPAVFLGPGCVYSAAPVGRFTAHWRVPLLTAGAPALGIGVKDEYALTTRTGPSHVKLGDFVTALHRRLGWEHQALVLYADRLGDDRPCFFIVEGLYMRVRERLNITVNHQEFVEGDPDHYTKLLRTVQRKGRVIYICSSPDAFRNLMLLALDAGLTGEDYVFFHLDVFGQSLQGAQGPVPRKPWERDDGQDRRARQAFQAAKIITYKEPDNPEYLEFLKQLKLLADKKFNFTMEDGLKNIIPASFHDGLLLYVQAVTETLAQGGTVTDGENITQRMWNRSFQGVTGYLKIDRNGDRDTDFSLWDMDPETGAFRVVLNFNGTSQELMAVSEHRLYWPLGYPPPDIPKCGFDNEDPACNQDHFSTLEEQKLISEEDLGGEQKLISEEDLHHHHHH

[6] = molecular target: T6, monkey NPR1 on HEK293/mfNPR1 cells in the presence of 10 nM hANP (monkey (Macaca fascicularis); human); assay: ECL cell-binding immunoassay (MSD), HEK293/mfNPR1, +10 nM hANP
T6 construct: also called HEK293/mfNPR1 +10 nM hANP
T6 sequence (P01160 124-151): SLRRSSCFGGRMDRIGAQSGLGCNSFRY
Method: as §1, §2

[7] = molecular target: T3, pig NPR1 extracellular domain expressed …; assay: SPR Biacore 8K, mAb captured via anti-hFc, 25 C
Method: as §3, §4

[8] = molecular target: T4, dog NPR1 extracellular domain expressed …; assay: SPR Biacore 8K, mAb captured via anti-hFc, 25 C
Method: as §3, §4

[9] = molecular target: T5, mouse NPR1 extracellular domain …; assay: SPR Biacore 8K, mAb captured via anti-hFc, 25 C
Method: as §3, §4

T1 sequence (P16860 103-134): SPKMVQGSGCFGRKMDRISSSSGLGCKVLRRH

B1: REGN7541 (antibody, human IgG4 S228P, kappa, V domains shown)
VH: EVQLVESGGGLVQPGGSLRLSCAASGFTFSSYAMSWVRQAPGKGLEWVSTISGSGTNTYYADSVKGRFTISNDNSKNTLYLQMNSLRAEDTAVYYCANYDILTGHSFEYWGQGTLVTVSS
VL: AIQMTQSPSSLSASVGDRVTITCRASQGIRNDLGWYQQKPGKAPELLIYAASRLPSGVPLRFSGSGSGTDFTLTISSLQPEDVATYYCLQDYNYPFTFGPGTKVDIKR
notes: also called mAb38067
EC50 [1]: 0.92 nM | EC50 [2]: 1.4 nM | 40 nM Ag Bound (RU) [3]: 0 RU | binding result [3]: no binding (tested: 40 nM) | 40 nM Ag Bound (RU) [4]: 0 RU | 40 nM Ag Bound (RU) [5]: 0 RU | EC50 [6]: 2.9 nM | 40 nM Ag Bound (RU) [7]: 0 RU | 40 nM Ag Bound (RU) [8]: 0 RU | binding result [8]: no binding (tested: 40 nM) | 40 nM Ag Bound (RU) [9]: 0 RU | binding result [9]: no binding (tested: 40 nM)

B2: REGN7544 (antibody, human IgG4 S228P, kappa, V domains shown)
VH: EVQLVESGGGLVQPGGSLRLSCAASGFSFVSYVMGWVRQAPGKGLEWVSSISGSLTNTYYADPVKGRFTISRDNSKNTLYLQMNSLRAEDTAAYYCVTYDILTGHLFDYWGQGTLVTVSS
VL: AIQMTQSPSSLSASVGDRVTITCRSSQGIRNDFGWYQQKPGKAPKLLIYAASRLQSGVPSRFSGSGSGTDFTLTINNLQPEDFATYYCLQDYTYPFTFGPGTKVDIKR
notes: also called mAb38072
EC50 [1]: 1.7 nM | EC50 [2]: 1.7 nM | 40 nM Ag Bound (RU) [3]: 5 RU | Kd [3]: 98.1 nM | koff [3]: 0.00947 s⁻¹ | kon [3]: 96500 M⁻¹ s⁻¹ | t½ [3]: 1.2 min | 40 nM Ag Bound (RU) [4]: 0 RU | 40 nM Ag Bound (RU) [5]: 0 RU | EC50 [6]: 4.2 nM | 40 nM Ag Bound (RU) [7]: 2 RU | Kd [7]: 122 nM | koff [7]: 0.00679 s⁻¹ | kon [7]: 55800 M⁻¹ s⁻¹ | t½ [7]: 1.7 min | 40 nM Ag Bound (RU) [8]: 0 RU | binding result [8]: no binding (tested: 40 nM) | 40 nM Ag Bound (RU) [9]: 0 RU | binding result [9]: no binding (tested: 40 nM)

B3: H4H22034 (antibody, human IgG4 S228P, kappa, V domains shown)
VH: EVQLLESGGDLVQPGGSLRLSCAASGFTFSDYAMIWVRQTPGKGLEWVSGISGGGGSTDYADSVKGRFTTSRDNVKNAMYLQMNSLRTEDTAVYYCAREDQLPSYHNYYGMDVWGQGTTVTVSS
VL: DIQMTQSPSSVSASVGDRVTITCRASQGINNYLAWFQQKPGKAPKSLIYGASSLQSGVPSKFSGSRSGIDFTLTISSLQPEDFATYYCQQYNSYPYTFGQGTKLEIKR
notes: also called H4H22034N; mAb22034
EC50 [1]: 0.42 nM | EC50 [2]: 0.33 nM | 40 nM Ag Bound (RU) [3]: 0 RU | binding result [3]: no binding (tested: 40 nM) | 40 nM Ag Bound (RU) [4]: 0 RU | 40 nM Ag Bound (RU) [5]: 0 RU | EC50 [6]: 0.67 nM | 40 nM Ag Bound (RU) [7]: 0 RU | 40 nM Ag Bound (RU) [8]: 0 RU | binding result [8]: no binding (tested: 40 nM) | 40 nM Ag Bound (RU) [9]: 0 RU | binding result [9]: no binding (tested: 40 nM)

B4: REGN7548 (antibody, human IgG4 S228P, kappa, V domains shown)
VH: QVQLVQSGAEVKKPGASVKVSCKASGYTFTSYYIHWVRQAPGQGLEWMGIISPSDGYTSYAQNFQGRVTMTRDTSTNTVYMDLSSLRSEDTAMFYCARNDPLTTVALDYWGQGTLVTVSS
VL: AIQMTQSPSSLSASVGDRVTITCRASQGIRYDLGWFQQKPGKAPKLLIHAASSLQSGVPSRFSGSGSGTDFTLTISSLQPEDFATYYCLQDYNYPFTFGQGTKLEIKR
notes: also called mAb38090
EC50 [1]: 0.56 nM | EC50 [2]: 0.56 nM | 40 nM Ag Bound (RU) [3]: 14 RU | Kd [3]: 42.1 nM | koff [3]: 0.00927 s⁻¹ | kon [3]: 220000 M⁻¹ s⁻¹ | t½ [3]: 1.2 min | 40 nM Ag Bound (RU) [4]: 0 RU | 40 nM Ag Bound (RU) [5]: 0 RU | EC50 [6]: 1.2 nM | 40 nM Ag Bound (RU) [7]: 11 RU | Kd [7]: 35.8 nM | koff [7]: 0.00427 s⁻¹ | kon [7]: 119000 M⁻¹ s⁻¹ | t½ [7]: 2.7 min | 40 nM Ag Bound (RU) [8]: 0 RU | binding result [8]: no binding (tested: 40 nM) | 40 nM Ag Bound (RU) [9]: 0 RU | binding result [9]: no binding (tested: 40 nM)
